Experimental findings from patent US20210179706A1 (AKESO BIOPHARMA, published 2021) are described below.

One assay deals with T1, human IL-1β-hFc (human, UniProt P01584 117-269, limits assumed).
T1 construct: also called human IL-1f3-hFc [sic]; not shown: human IgG Fc purification tag
Nature of the assay: competition ELISA on coated IL-1β-hFc, competitor IL-1R1(1-332)-his; 4-parameter fit. In general terms: An ELISA detects its analyte on a solid surface through an enzyme-linked reagent.

Assay [1] has as its target T2, human IL-1β-His-Bio (human, UniProt P01584 117-269, limits assumed, biotinylated with EZ-Link Sulfo-NHS-LC-Biotinylation Kit (sites not given)).
T2 construct: also called biotinylated human IL-1β-His; not shown: His tag
As to the kind of experiment: ELISA, IL-1β-His-Bio captured on streptavidin; 4-parameter fit.

Assay [2] has as its target T2, human IL-1β-His-Bio. Nature of the assay: ELISA, IL-1β-His-Bio captured on streptavidin; antibody 0.012 µg/mL.
Description: A plate was coated with 50 μL of 2 μg/mL SA (streptavidin) in each well, and incubated overnight at 4° C. After the plate was washed once and the residual liquid was removed, each well was blocked with 300 μL of 1% BSA solution (dissolved in PBS) and the plate was incubated at 37° C. for 2 h. The plate was washed three times and the residual liquid was removed. Human IL-1β-His-Bio in each well was diluted with 50 μL of PBST to 0.2 μg/mL, and the plate was incubated at 37° C. for 30 min. Then the plate was washed three times and the residual liquid was removed. […] Two duplicate wells were set for the above concentrations, with a final volume of 100 μL per well, and the plate was incubated at 37° C. for 30 min. […] After the plate was washed four times and the residual liquid was removed, 50 μL of TMB chromogenic solution was added to each well for color developing for 5 min away from light at room temperature, then 50 μL of stop solution was added to each well to stop the reaction. Then the plate was put into a plate reader immediately, and the OD value of each well in the plate was read at 450 nm.
SoftMax Pro 6.2.1 software was used to analyze and process the data. 4-parameter fitted curves were plotted using the antibody concentration as the abscissa and the absorbance as the ordinate.

Description for human IL-1β-hFc: A plate was coated with 50 μL of 4 μg/mL human IL-1f3-hFc in each well, and incubated overnight at 4° C. After the plate was washed once and the residual liquid was removed, each well was blocked with 300 μL of 1% BSA solution (dissolved in PBS) and the plate was incubated at 37° C. for 2 h. Then the plate was washed three times and the residual liquid was removed. […] Two duplicate wells were set for the above concentrations, with a final volume of 50 μL per well, and the plate was incubated for 10 min. […] Then the plate was incubated at 37° C. for 30 min. After the plate was washed three times and the residual liquid was removed, 50 μL of anti-His murine monoclonal antibody (HRP-labeled) working solution was added to each well, and the plate was incubated at 37° C. for 30 min. After the plate was washed four times and the residual liquid was removed, 50 μL of TMB chromogenic solution was added to each well for color developing for 10 min or 5 min away from light at room temperature, then 50 μL of stop solution was added to each well to stop the reaction. Then the plate was put into a plate reader immediately, and the OD value of each well in the plate was read at 450 nm.
The data were analyzed and processed using SoftMax Pro 6.2.1 software and 4-parameter fit curves were plotted using the antibody concentration as the abscissa and the absorbance as the ordinate.

B1: anti-IL-1β murine monoclonal antibody 3H6 (antibody, V domains shown)
VH: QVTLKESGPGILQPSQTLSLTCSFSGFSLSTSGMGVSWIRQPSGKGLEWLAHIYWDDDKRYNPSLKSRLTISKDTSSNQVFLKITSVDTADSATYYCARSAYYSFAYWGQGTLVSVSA
VL: DIVMTQSHKFMSTSVGGRVRITCKASQDVDTDVAWFQQKPGQSPKLLIYWASTRHTGVPDRFTGSGSGTDFTLTISNVQSEDLADYFCQQYSSYPTFGAGTKLELK
notes: Mouse monoclonal antibody purified from hybridoma supernatant on protein A; also called antibody secreted by hybridoma cell line LT010 (IL-1β-3H6), CCTCC NO: C2018133
Broadly, the EC50 is the concentration needed to bring the measured effect to its halfway point. A lower EC50 goes with an effect from little substance. With B1, the figures for the EC50 with human IL-1β-hFc and with human IL-1β-His-Bio [1] were 137 pM and 99 pM, respectively. Also, the “OD (450 nm)” value with human IL-1β-His-Bio [2] is 1.23 OD450.
